Data on seven molecules can be found in patent US20110105394A1 (Novo Nordisk, published 2011).

*1 amine or outer side, *2 acyl side, *3 side chain or, on linkers, in order; H or OH if unused. Bridges are numbered along the chain shown (N, C = ends). Where no end group is shown, it is not given here. The star is where a group is joined. C20 diacid = O=C(O)CCCCCCCCCCCCCCCCCCC(=O)*; γGlu = O=C(O)[C@H](CCC(=O)[*:2])N[*:1]

First the molecules themselves.
T1: Amylin 3(a) receptor (human calcitonin receptor (CTa) with RAMP-3) (human, UniProt P30988 25-474; O60896 24-148, limits assumed)
T1 sequence (looked up) 1: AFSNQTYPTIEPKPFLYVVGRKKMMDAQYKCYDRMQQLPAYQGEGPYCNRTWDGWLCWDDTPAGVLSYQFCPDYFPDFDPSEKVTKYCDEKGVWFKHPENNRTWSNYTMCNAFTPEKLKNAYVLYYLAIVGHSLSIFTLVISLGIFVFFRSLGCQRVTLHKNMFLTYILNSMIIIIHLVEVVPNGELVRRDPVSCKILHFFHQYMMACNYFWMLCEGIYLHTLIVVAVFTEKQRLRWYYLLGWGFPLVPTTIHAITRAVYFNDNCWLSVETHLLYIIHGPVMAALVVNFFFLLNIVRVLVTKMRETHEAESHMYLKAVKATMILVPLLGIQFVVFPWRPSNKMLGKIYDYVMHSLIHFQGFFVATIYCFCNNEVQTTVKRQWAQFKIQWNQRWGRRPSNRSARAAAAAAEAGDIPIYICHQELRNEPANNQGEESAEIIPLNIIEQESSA
T1 sequence (looked up) 2: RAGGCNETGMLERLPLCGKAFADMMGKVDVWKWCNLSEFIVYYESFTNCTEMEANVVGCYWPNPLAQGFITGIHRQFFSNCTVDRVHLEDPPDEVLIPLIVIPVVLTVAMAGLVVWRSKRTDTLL

T2: Amylin 3(a) receptor (human calcitonin receptor (CTa) with RAMP-3) (human) (UniProt P30988)
T2 sequence (looked up) 1: T1 sequence (looked up) 1
T2 sequence (looked up) 2: T1 sequence (looked up) 2

B1: N-alpha-[(S)-4-Carboxy-4-(19-carboxynonadecanoylamino)butyryl]-His-Arg-[His1,His17]-pramlintide (peptide)
peptide: HRHCNTATCATQRLANFLHHSSNNFGPILPPTNVGSNTY-NH2
modifications: disulfide 4-9; not fully specified (N-terminus); printed as N-alpha-[(S)-4-Carboxy-4-(19-carboxynonadecanoylamino)butyryl]-His-Arg-[His1,His17]-pramlintide
B2: N-alpha-[19-carboxynonadecanoyl]-Glu-Lys-[Arg1,His17]-pramlintide (peptide)
peptide: {C20 diacid}-EKRCNTATCATQRLANFLHHSSNNFGPILPPTNVGSNTY-NH2
modifications: disulfide 4-9
SMILES: CC[C@H](C)[C@H](NC(=O)[C@@H]1CCCN1C(=O)CNC(=O)[C@H](Cc1ccccc1)NC(=O)[C@H](CC(N)=O)NC(=O)[C@H](CC(N)=O)NC(=O)[C@H](CO)NC(=O)[C@H](CO)NC(=O)[C@H](Cc1c[nH]cn1)NC(=O)[C@H](Cc1c[nH]cn1)NC(=O)[C@H](CC(C)C)NC(=O)[C@H](Cc1ccccc1)NC(=O)[C@H](CC(N)=O)NC(=O)[C@H](C)NC(=O)[C@H](CC(C)C)NC(=O)[C@H](CCCNC(=N)N)NC(=O)[C@H](CCC(N)=O)NC(=O)[C@@H](NC(=O)[C@H](C)NC(=O)[C@@H]1CSSC[C@H](NC(=O)[C@H](CCCNC(=N)N)NC(=O)[C@H](CCCCN)NC(=O)[C@H](CCC(=O)O)NC(=O)CCCCCCCCCCCCCCCCCCC(=O)O)C(=O)N[C@@H](CC(N)=O)C(=O)N[C@@H]([C@@H](C)O)C(=O)N[C@@H](C)C(=O)N[C@@H]([C@@H](C)O)C(=O)N1)[C@@H](C)O)C(=O)N[C@@H](CC(C)C)C(=O)N1CCC[C@H]1C(=O)N1CCC[C@H]1C(=O)N[C@H](C(=O)N[C@@H](CC(N)=O)C(=O)N[C@H](C(=O)NCC(=O)N[C@@H](CO)C(=O)N[C@@H](CC(N)=O)C(=O)N[C@H](C(=O)N[C@@H](Cc1ccc(O)cc1)C(N)=O)[C@@H](C)O)C(C)C)[C@@H](C)O
B3: N-alpha-[19-carboxynonadecanoyl]-Glu-Lys-Arg-[His17]-pramlintide (peptide)
peptide: {C20 diacid}-EKRKCNTATCATQRLANFLHHSSNNFGPILPPTNVGSNTY-NH2
modifications: disulfide 5-10
SMILES: CC[C@H](C)[C@H](NC(=O)[C@@H]1CCCN1C(=O)CNC(=O)[C@H](Cc1ccccc1)NC(=O)[C@H](CC(N)=O)NC(=O)[C@H](CC(N)=O)NC(=O)[C@H](CO)NC(=O)[C@H](CO)NC(=O)[C@H](Cc1c[nH]cn1)NC(=O)[C@H](Cc1c[nH]cn1)NC(=O)[C@H](CC(C)C)NC(=O)[C@H](Cc1ccccc1)NC(=O)[C@H](CC(N)=O)NC(=O)[C@H](C)NC(=O)[C@H](CC(C)C)NC(=O)[C@H](CCCNC(=N)N)NC(=O)[C@H](CCC(N)=O)NC(=O)[C@@H](NC(=O)[C@H](C)NC(=O)[C@@H]1CSSC[C@H](NC(=O)[C@H](CCCCN)NC(=O)[C@H](CCCNC(=N)N)NC(=O)[C@H](CCCCN)NC(=O)[C@H](CCC(=O)O)NC(=O)CCCCCCCCCCCCCCCCCCC(=O)O)C(=O)N[C@@H](CC(N)=O)C(=O)N[C@@H]([C@@H](C)O)C(=O)N[C@@H](C)C(=O)N[C@@H]([C@@H](C)O)C(=O)N1)[C@@H](C)O)C(=O)N[C@@H](CC(C)C)C(=O)N1CCC[C@H]1C(=O)N1CCC[C@H]1C(=O)N[C@H](C(=O)N[C@@H](CC(N)=O)C(=O)N[C@H](C(=O)NCC(=O)N[C@@H](CO)C(=O)N[C@@H](CC(N)=O)C(=O)N[C@H](C(=O)N[C@@H](Cc1ccc(O)cc1)C(N)=O)[C@@H](C)O)C(C)C)[C@@H](C)O
B4: N-alpha-[(S)-4-Carboxy-4-(19-carboxynonadecanoylamino)butyryl]-Glu-His-His-[His1,His17]-pramlintide (peptide)
peptide: {C20 diacid-γGlu}-EHHHCNTATCATQRLANFLHHSSNNFGPILPPTNVGSNTY-NH2
modifications: disulfide 5-10
SMILES: CC[C@H](C)[C@H](NC(=O)[C@@H]1CCCN1C(=O)CNC(=O)[C@H](Cc1ccccc1)NC(=O)[C@H](CC(N)=O)NC(=O)[C@H](CC(N)=O)NC(=O)[C@H](CO)NC(=O)[C@H](CO)NC(=O)[C@H](Cc1c[nH]cn1)NC(=O)[C@H](Cc1c[nH]cn1)NC(=O)[C@H](CC(C)C)NC(=O)[C@H](Cc1ccccc1)NC(=O)[C@H](CC(N)=O)NC(=O)[C@H](C)NC(=O)[C@H](CC(C)C)NC(=O)[C@H](CCCNC(=N)N)NC(=O)[C@H](CCC(N)=O)NC(=O)[C@@H](NC(=O)[C@H](C)NC(=O)[C@@H]1CSSC[C@H](NC(=O)[C@H](Cc2c[nH]cn2)NC(=O)[C@H](Cc2c[nH]cn2)NC(=O)[C@H](Cc2c[nH]cn2)NC(=O)[C@H](CCC(=O)O)NC(=O)CC[C@H](NC(=O)CCCCCCCCCCCCCCCCCCC(=O)O)C(=O)O)C(=O)N[C@@H](CC(N)=O)C(=O)N[C@@H]([C@@H](C)O)C(=O)N[C@@H](C)C(=O)N[C@@H]([C@@H](C)O)C(=O)N1)[C@@H](C)O)C(=O)N[C@@H](CC(C)C)C(=O)N1CCC[C@H]1C(=O)N1CCC[C@H]1C(=O)N[C@H](C(=O)N[C@@H](CC(N)=O)C(=O)N[C@H](C(=O)NCC(=O)N[C@@H](CO)C(=O)N[C@@H](CC(N)=O)C(=O)N[C@H](C(=O)N[C@@H](Cc1ccc(O)cc1)C(N)=O)[C@@H](C)O)C(C)C)[C@@H](C)O
B5: N-alpha-[(S)-4-Carboxy-4-(19-carboxynonadecanoylamino)butyryl]-Glu-His-His-[Arg1,Arg17]-pramlintide (peptide)
peptide: {C20 diacid-γGlu}-EHHRCNTATCATQRLANFLRHSSNNFGPILPPTNVGSNTY-NH2
modifications: disulfide 5-10
SMILES: CC[C@H](C)[C@H](NC(=O)[C@@H]1CCCN1C(=O)CNC(=O)[C@H](Cc1ccccc1)NC(=O)[C@H](CC(N)=O)NC(=O)[C@H](CC(N)=O)NC(=O)[C@H](CO)NC(=O)[C@H](CO)NC(=O)[C@H](Cc1c[nH]cn1)NC(=O)[C@H](CCCNC(=N)N)NC(=O)[C@H](CC(C)C)NC(=O)[C@H](Cc1ccccc1)NC(=O)[C@H](CC(N)=O)NC(=O)[C@H](C)NC(=O)[C@H](CC(C)C)NC(=O)[C@H](CCCNC(=N)N)NC(=O)[C@H](CCC(N)=O)NC(=O)[C@@H](NC(=O)[C@H](C)NC(=O)[C@@H]1CSSC[C@H](NC(=O)[C@H](CCCNC(=N)N)NC(=O)[C@H](Cc2c[nH]cn2)NC(=O)[C@H](Cc2c[nH]cn2)NC(=O)[C@H](CCC(=O)O)NC(=O)CC[C@H](NC(=O)CCCCCCCCCCCCCCCCCCC(=O)O)C(=O)O)C(=O)N[C@@H](CC(N)=O)C(=O)N[C@@H]([C@@H](C)O)C(=O)N[C@@H](C)C(=O)N[C@@H]([C@@H](C)O)C(=O)N1)[C@@H](C)O)C(=O)N[C@@H](CC(C)C)C(=O)N1CCC[C@H]1C(=O)N1CCC[C@H]1C(=O)N[C@H](C(=O)N[C@@H](CC(N)=O)C(=O)N[C@H](C(=O)NCC(=O)N[C@@H](CO)C(=O)N[C@@H](CC(N)=O)C(=O)N[C@H](C(=O)N[C@@H](Cc1ccc(O)cc1)C(N)=O)[C@@H](C)O)C(C)C)[C@@H](C)O
B6: N-alpha-[(S)-4-Carboxy-4-(19-carboxynonadecanoylamino)butyryl]-Glu-His-Arg-[Arg1,His17]-pramlintide (peptide)
peptide: {C20 diacid-γGlu}-EHRRCNTATCATQRLANFLHHSSNNFGPILPPTNVGSNTY-NH2
modifications: disulfide 5-10
SMILES: CC[C@H](C)[C@H](NC(=O)[C@@H]1CCCN1C(=O)CNC(=O)[C@H](Cc1ccccc1)NC(=O)[C@H](CC(N)=O)NC(=O)[C@H](CC(N)=O)NC(=O)[C@H](CO)NC(=O)[C@H](CO)NC(=O)[C@H](Cc1c[nH]cn1)NC(=O)[C@H](Cc1c[nH]cn1)NC(=O)[C@H](CC(C)C)NC(=O)[C@H](Cc1ccccc1)NC(=O)[C@H](CC(N)=O)NC(=O)[C@H](C)NC(=O)[C@H](CC(C)C)NC(=O)[C@H](CCCNC(=N)N)NC(=O)[C@H](CCC(N)=O)NC(=O)[C@@H](NC(=O)[C@H](C)NC(=O)[C@@H]1CSSC[C@H](NC(=O)[C@H](CCCNC(=N)N)NC(=O)[C@H](CCCNC(=N)N)NC(=O)[C@H](Cc2c[nH]cn2)NC(=O)[C@H](CCC(=O)O)NC(=O)CC[C@H](NC(=O)CCCCCCCCCCCCCCCCCCC(=O)O)C(=O)O)C(=O)N[C@@H](CC(N)=O)C(=O)N[C@@H]([C@@H](C)O)C(=O)N[C@@H](C)C(=O)N[C@@H]([C@@H](C)O)C(=O)N1)[C@@H](C)O)C(=O)N[C@@H](CC(C)C)C(=O)N1CCC[C@H]1C(=O)N1CCC[C@H]1C(=O)N[C@H](C(=O)N[C@@H](CC(N)=O)C(=O)N[C@H](C(=O)NCC(=O)N[C@@H](CO)C(=O)N[C@@H](CC(N)=O)C(=O)N[C@H](C(=O)N[C@@H](Cc1ccc(O)cc1)C(N)=O)[C@@H](C)O)C(C)C)[C@@H](C)O
B7: N-alpha-(19-carboxynonadecanoyl)-Glu-Glu-Arg-[Glu1,Glu14,His17,Glu31]-pramlintide (peptide)
peptide: {C20 diacid}-EERECNTATCATQRLAEFLHHSSNNFGPILPPTEVGSNTY-NH2
modifications: disulfide 5-10
SMILES: CC[C@H](C)[C@H](NC(=O)[C@@H]1CCCN1C(=O)CNC(=O)[C@H](Cc1ccccc1)NC(=O)[C@H](CC(N)=O)NC(=O)[C@H](CC(N)=O)NC(=O)[C@H](CO)NC(=O)[C@H](CO)NC(=O)[C@H](Cc1c[nH]cn1)NC(=O)[C@H](Cc1c[nH]cn1)NC(=O)[C@H](CC(C)C)NC(=O)[C@H](Cc1ccccc1)NC(=O)[C@H](CCC(=O)O)NC(=O)[C@H](C)NC(=O)[C@H](CC(C)C)NC(=O)[C@H](CCCNC(=N)N)NC(=O)[C@H](CCC(N)=O)NC(=O)[C@@H](NC(=O)[C@H](C)NC(=O)[C@@H]1CSSC[C@H](NC(=O)[C@H](CCC(=O)O)NC(=O)[C@H](CCCNC(=N)N)NC(=O)[C@H](CCC(=O)O)NC(=O)[C@H](CCC(=O)O)NC(=O)CCCCCCCCCCCCCCCCCCC(=O)O)C(=O)N[C@@H](CC(N)=O)C(=O)N[C@@H]([C@@H](C)O)C(=O)N[C@@H](C)C(=O)N[C@@H]([C@@H](C)O)C(=O)N1)[C@@H](C)O)C(=O)N[C@@H](CC(C)C)C(=O)N1CCC[C@H]1C(=O)N1CCC[C@H]1C(=O)N[C@H](C(=O)N[C@@H](CCC(=O)O)C(=O)N[C@H](C(=O)NCC(=O)N[C@@H](CO)C(=O)N[C@@H](CC(N)=O)C(=O)N[C@H](C(=O)N[C@@H](Cc1ccc(O)cc1)C(N)=O)[C@@H](C)O)C(C)C)[C@@H](C)O

The first test deals with T1, Amylin 3(a) receptor (human calcitonin …). Kind of test: cell-based or functional assay.
For B1, the “Potency Luciferase” value came to 50 pM. In the case of B2, the “Potency Luciferase” value stood at 70 pM. On the same count and under the same terms, as for B3, the figure is 60 pM.

A further test concerns the target T2, Amylin 3(a) receptor (human calcitonin receptor (CTa) with RAMP-3) (human). Briefly: cell-based or functional assay.
As for B4, the Potency Luciferase came to 100 pM. Turning to B5, the Potency Luciferase worked out at 200 pM. Still for that read-out and setting: the result for B6 reads 200 pM; that for B7, 900 pM.
